One block for each binder: values may come before it. Numbered stars: 1 amine (or outer) side, 2 acyl side, 3 side chain; on linkers, the order of the positions; unused ones are H or OH. * marks the point of attachment. C20 diacid = O=C(O)CCCCCCCCCCCCCCCCCCC(=O)*; C18 diacid = O=C(O)CCCCCCCCCCCCCCCCC(=O)*; γGlu = O=C(O)[C@H](CCC(=O)[*:2])N[*:1]
What was measured:
[1] = target: T1, human amylin 3(a) receptor (human calcitonin receptor co-expressed with RAMP-3) (human, UniProt P30988 25-474; O60896 24-148, limits assumed); test: cell-based or functional assay
T1 sequence (looked up) 1: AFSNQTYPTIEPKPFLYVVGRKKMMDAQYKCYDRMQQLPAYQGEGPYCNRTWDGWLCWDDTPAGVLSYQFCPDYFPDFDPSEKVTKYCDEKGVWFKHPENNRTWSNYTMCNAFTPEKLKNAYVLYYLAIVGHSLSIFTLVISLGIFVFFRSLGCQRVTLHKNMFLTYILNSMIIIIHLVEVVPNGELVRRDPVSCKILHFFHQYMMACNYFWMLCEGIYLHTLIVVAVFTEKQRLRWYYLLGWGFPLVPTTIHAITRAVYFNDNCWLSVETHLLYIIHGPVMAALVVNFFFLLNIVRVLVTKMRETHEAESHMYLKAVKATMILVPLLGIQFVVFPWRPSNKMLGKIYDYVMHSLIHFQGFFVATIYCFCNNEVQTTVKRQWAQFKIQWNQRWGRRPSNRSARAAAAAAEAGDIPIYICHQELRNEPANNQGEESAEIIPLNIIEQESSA
T1 sequence (looked up) 2: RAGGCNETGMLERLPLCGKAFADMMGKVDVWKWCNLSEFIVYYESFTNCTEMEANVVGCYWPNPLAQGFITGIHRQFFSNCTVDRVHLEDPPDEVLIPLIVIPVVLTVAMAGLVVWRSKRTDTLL

[2] = target: T2, human calcitonin receptor (human, UniProt P30988 25-474); test: cell-based or functional assay
T2 sequence (looked up): T1 sequence (looked up) 1

B1: [N-terminal(C18 diacid-gGlu), des1, 4Q, 30S, 31G]mimylin (peptide)
peptide: {C18 diacid-γGlu}-ASQLSTAALGRLSAELHELATLPRTETGSGSP-NH2
SMILES: CC(C)C[C@H](NC(=O)[C@H](C)NC(=O)[C@H](C)NC(=O)[C@@H](NC(=O)[C@H](CO)NC(=O)[C@H](CC(C)C)NC(=O)[C@H](CCC(N)=O)NC(=O)[C@H](CO)NC(=O)[C@H](C)NC(=O)CC[C@H](NC(=O)CCCCCCCCCCCCCCCCC(=O)O)C(=O)O)[C@@H](C)O)C(=O)NCC(=O)N[C@@H](CCCNC(=N)N)C(=O)N[C@@H](CC(C)C)C(=O)N[C@@H](CO)C(=O)N[C@@H](C)C(=O)N[C@@H](CCC(=O)O)C(=O)N[C@@H](CC(C)C)C(=O)N[C@@H](Cc1c[nH]cn1)C(=O)N[C@@H](CCC(=O)O)C(=O)N[C@@H](CC(C)C)C(=O)N[C@@H](C)C(=O)N[C@H](C(=O)N[C@@H](CC(C)C)C(=O)N1CCC[C@H]1C(=O)N[C@@H](CCCNC(=N)N)C(=O)N[C@H](C(=O)N[C@@H](CCC(=O)O)C(=O)N[C@H](C(=O)NCC(=O)N[C@@H](CO)C(=O)NCC(=O)N[C@@H](CO)C(=O)N1CCC[C@H]1C(N)=O)[C@@H](C)O)[C@@H](C)O)[C@@H](C)O
hAmylin-R funct. EC50 (pM) [1]: 9 pM
hCTR funct. EC50 (pM) [2]: 11 pM

B3: [N-terminal(C18 diacid-gGlu), des1, 9V, 30S, 31G]mimylin (peptide)
peptide: {C18 diacid-γGlu}-ASELSTAVLGRLSAELHELATLPRTETGSGSP-NH2
SMILES: CC(C)C[C@H](NC(=O)[C@H](CCC(=O)O)NC(=O)[C@H](Cc1c[nH]cn1)NC(=O)[C@H](CC(C)C)NC(=O)[C@H](CCC(=O)O)NC(=O)[C@H](C)NC(=O)[C@H](CO)NC(=O)[C@H](CC(C)C)NC(=O)[C@H](CCCNC(=N)N)NC(=O)CNC(=O)[C@H](CC(C)C)NC(=O)[C@@H](NC(=O)[C@H](C)NC(=O)[C@@H](NC(=O)[C@H](CO)NC(=O)[C@H](CC(C)C)NC(=O)[C@H](CCC(=O)O)NC(=O)[C@H](CO)NC(=O)[C@H](C)NC(=O)CC[C@H](NC(=O)CCCCCCCCCCCCCCCCC(=O)O)C(=O)O)[C@@H](C)O)C(C)C)C(=O)N[C@@H](C)C(=O)N[C@H](C(=O)N[C@@H](CC(C)C)C(=O)N1CCC[C@H]1C(=O)N[C@@H](CCCNC(=N)N)C(=O)N[C@H](C(=O)N[C@@H](CCC(=O)O)C(=O)N[C@H](C(=O)NCC(=O)N[C@@H](CO)C(=O)NCC(=O)N[C@@H](CO)C(=O)N1CCC[C@H]1C(N)=O)[C@@H](C)O)[C@@H](C)O)[C@@H](C)O
hAmylin-R funct. EC50 (pM) [1]: 10 pM
hCTR funct. EC50 (pM) [2]: 14 pM

B6: [N-terminal(C18 diacid), 5I, 9I, 10I, 20I]mimylin (peptide)
peptide: {C18 diacid}-EASEISTAIIGRLSAELHEIATLPRTETGPESP-NH2
SMILES: CC[C@H](C)[C@H](NC(=O)[C@H](C)NC(=O)[C@@H](NC(=O)[C@H](CO)NC(=O)[C@@H](NC(=O)[C@H](CCC(=O)O)NC(=O)[C@H](CO)NC(=O)[C@H](C)NC(=O)[C@H](CCC(=O)O)NC(=O)CCCCCCCCCCCCCCCCC(=O)O)[C@@H](C)CC)[C@@H](C)O)C(=O)N[C@H](C(=O)NCC(=O)N[C@@H](CCCNC(=N)N)C(=O)N[C@@H](CC(C)C)C(=O)N[C@@H](CO)C(=O)N[C@@H](C)C(=O)N[C@@H](CCC(=O)O)C(=O)N[C@@H](CC(C)C)C(=O)N[C@@H](Cc1c[nH]cn1)C(=O)N[C@@H](CCC(=O)O)C(=O)N[C@H](C(=O)N[C@@H](C)C(=O)N[C@H](C(=O)N[C@@H](CC(C)C)C(=O)N1CCC[C@H]1C(=O)N[C@@H](CCCNC(=N)N)C(=O)N[C@H](C(=O)N[C@@H](CCC(=O)O)C(=O)N[C@H](C(=O)NCC(=O)N1CCC[C@H]1C(=O)N[C@@H](CCC(=O)O)C(=O)N[C@@H](CO)C(=O)N1CCC[C@H]1C(N)=O)[C@@H](C)O)[C@@H](C)O)[C@@H](C)O)[C@@H](C)CC)[C@@H](C)CC
hAmylin-R funct. EC50 (pM) [1]: 10 pM
hCTR funct. EC50 (pM) [2]: 6 pM

Next, values leading:

hAmylin-R funct. EC50 (pM) [1]: 32 pM
hCTR funct. EC50 (pM) [2]: 29 pM
B2: [N-terminal(C20 diacid-gGlu), des1, 23Y, 30S, 31G, 33Y]mimylin (peptide)
peptide: {C20 diacid-γGlu}-ASELSTAALGRLSAELHELATYPRTETGSGSY-NH2
SMILES: CC(C)C[C@H](NC(=O)[C@H](C)NC(=O)[C@H](C)NC(=O)[C@@H](NC(=O)[C@H](CO)NC(=O)[C@H](CC(C)C)NC(=O)[C@H](CCC(=O)O)NC(=O)[C@H](CO)NC(=O)[C@H](C)NC(=O)CC[C@H](NC(=O)CCCCCCCCCCCCCCCCCCC(=O)O)C(=O)O)[C@@H](C)O)C(=O)NCC(=O)N[C@@H](CCCNC(=N)N)C(=O)N[C@@H](CC(C)C)C(=O)N[C@@H](CO)C(=O)N[C@@H](C)C(=O)N[C@@H](CCC(=O)O)C(=O)N[C@@H](CC(C)C)C(=O)N[C@@H](Cc1c[nH]cn1)C(=O)N[C@@H](CCC(=O)O)C(=O)N[C@@H](CC(C)C)C(=O)N[C@@H](C)C(=O)N[C@H](C(=O)N[C@@H](Cc1ccc(O)cc1)C(=O)N1CCC[C@H]1C(=O)N[C@@H](CCCNC(=N)N)C(=O)N[C@H](C(=O)N[C@@H](CCC(=O)O)C(=O)N[C@H](C(=O)NCC(=O)N[C@@H](CO)C(=O)NCC(=O)N[C@@H](CO)C(=O)N[C@@H](Cc1ccc(O)cc1)C(N)=O)[C@@H](C)O)[C@@H](C)O)[C@@H](C)O

hAmylin-R funct. EC50 (pM) [1]: 38 pM
hCTR funct. EC50 (pM) [2]: 42 pM
Binder: {C20 diacid-γGlu}-ASGLSTAALGRLSAELHELATYPRTETGSGSP-NH2 [[N-terminal(C20 diacid-gGlu), des1, 4G, 23Y, 30S, 31G]mimylin]

hAmylin-R funct. EC50 (pM) [1]: 37 pM
hCTR funct. EC50 (pM) [2]: 41 pM
B4: [N-terminal(C20 diacid-gGlu), des1, 23Y, 30S, 31G, 32A]mimylin (peptide)
peptide: {C20 diacid-γGlu}-ASELSTAALGRLSAELHELATYPRTETGSGAP-NH2
SMILES: CC(C)C[C@H](NC(=O)[C@H](C)NC(=O)[C@H](C)NC(=O)[C@@H](NC(=O)[C@H](CO)NC(=O)[C@H](CC(C)C)NC(=O)[C@H](CCC(=O)O)NC(=O)[C@H](CO)NC(=O)[C@H](C)NC(=O)CC[C@H](NC(=O)CCCCCCCCCCCCCCCCCCC(=O)O)C(=O)O)[C@@H](C)O)C(=O)NCC(=O)N[C@@H](CCCNC(=N)N)C(=O)N[C@@H](CC(C)C)C(=O)N[C@@H](CO)C(=O)N[C@@H](C)C(=O)N[C@@H](CCC(=O)O)C(=O)N[C@@H](CC(C)C)C(=O)N[C@@H](Cc1c[nH]cn1)C(=O)N[C@@H](CCC(=O)O)C(=O)N[C@@H](CC(C)C)C(=O)N[C@@H](C)C(=O)N[C@H](C(=O)N[C@@H](Cc1ccc(O)cc1)C(=O)N1CCC[C@H]1C(=O)N[C@@H](CCCNC(=N)N)C(=O)N[C@H](C(=O)N[C@@H](CCC(=O)O)C(=O)N[C@H](C(=O)NCC(=O)N[C@@H](CO)C(=O)NCC(=O)N[C@@H](C)C(=O)N1CCC[C@H]1C(N)=O)[C@@H](C)O)[C@@H](C)O)[C@@H](C)O

hAmylin-R funct. EC50 (pM) [1]: 33 pM
hCTR funct. EC50 (pM) [2]: 27 pM
B5: [N-terminal(C20 diacid-gGlu), des1, 21S, 23Y, 30S, 31G]mimylin (peptide)
peptide: {C20 diacid-γGlu}-ASELSTAALGRLSAELHELSTYPRTETGSGSP-NH2
SMILES: CC(C)C[C@H](NC(=O)[C@H](C)NC(=O)[C@H](C)NC(=O)[C@@H](NC(=O)[C@H](CO)NC(=O)[C@H](CC(C)C)NC(=O)[C@H](CCC(=O)O)NC(=O)[C@H](CO)NC(=O)[C@H](C)NC(=O)CC[C@H](NC(=O)CCCCCCCCCCCCCCCCCCC(=O)O)C(=O)O)[C@@H](C)O)C(=O)NCC(=O)N[C@@H](CCCNC(=N)N)C(=O)N[C@@H](CC(C)C)C(=O)N[C@@H](CO)C(=O)N[C@@H](C)C(=O)N[C@@H](CCC(=O)O)C(=O)N[C@@H](CC(C)C)C(=O)N[C@@H](Cc1c[nH]cn1)C(=O)N[C@@H](CCC(=O)O)C(=O)N[C@@H](CC(C)C)C(=O)N[C@@H](CO)C(=O)N[C@H](C(=O)N[C@@H](Cc1ccc(O)cc1)C(=O)N1CCC[C@H]1C(=O)N[C@@H](CCCNC(=N)N)C(=O)N[C@H](C(=O)N[C@@H](CCC(=O)O)C(=O)N[C@H](C(=O)NCC(=O)N[C@@H](CO)C(=O)NCC(=O)N[C@@H](CO)C(=O)N1CCC[C@H]1C(N)=O)[C@@H](C)O)[C@@H](C)O)[C@@H](C)O

Reference: patent US20160272683A1 (Novo Nordisk, published 2016)
